Test results as given in PMC6868513.
“And” between values parts separate entries of the source, which are not always exact repeats. Equal entries are not always repeated. Blank lines part the entries; values can stand above or below the molecule they belong to.

How the values were obtained:
[1] = molecular target: BTNL3.8 heterodimer on 293T cells (human) (UniProt Q6UXE8)
[2] = molecular target: BTNL3 IgV domain (wild type) (UniProt Q6UXE8); assay: SPR; settings: parent: est. 1; read off a plot
[3] = molecular target: Soluble endothelial protein C receptor (EPCR) (UniProt Q9UNN8); assay: SPR; settings: parent: est. 1; read off a plot
UniProt Q9UNN8, sequence (Q9UNN8 whole entry, looked up, tested part not stated): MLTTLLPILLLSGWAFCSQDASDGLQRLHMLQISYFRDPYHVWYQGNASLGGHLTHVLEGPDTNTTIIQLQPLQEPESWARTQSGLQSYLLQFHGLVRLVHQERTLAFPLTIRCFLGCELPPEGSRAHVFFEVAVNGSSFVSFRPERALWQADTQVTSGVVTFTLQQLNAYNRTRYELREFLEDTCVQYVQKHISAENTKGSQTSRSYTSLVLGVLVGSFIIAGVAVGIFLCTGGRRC

soluble Vγ4Vδ1 TCR = assay: flow cytometry on cells; settings: anti-His mAb, read off a plot
[4] = molecular target: LES Vγ4Vδ5 TCR, soluble, wild type (human); assay: SPR; BIAcore3000; biotinylated wt or mutant LES TCR (1000-3500 RU) captured on streptavidin-coated CM5 chip; analyte (BTNL3 or BTNL8 IgV, EPCR) 1-200 μM; HBS-EP; 25°C; equilibrium analysis
[5] = molecular target: LES Vγ4Vδ5 TCR, soluble, wild type (human); assay: as above; remark: listed apart in the source
[6] = molecular target: LES Vγ4Vδ5 TCR, soluble, wild type (human); assay: ITC; iTC200; 20°C; 20mM Tris pH 8, 50 mM NaCl; TCR in the cell at 70 μM, BTNL3 at ten-fold higher concentration titrated as 20 × 2 μl injections; single independent binding site model
[7] = molecular target: LES Vγ4Vδ5 TCR, soluble, wild type (human); assay: SPR; competition: wt EPCR (2500-3000 RU) immobilised on the chip; LES TCR injected at 12.5 μM with increasing BTNL3 IgV (3.5-113 μM) or BTNL8 IgV (2.2-70.5 μM); response as percent of that without competitor
[8] = soluble Vγ4Vδ1 0.1 µg/ml (read from x axis), parent: est. 9.0
[9] = soluble Vγ4Vδ1 10 µg/ml (read from x axis), parent: est. 31
[10] = soluble Vγ4Vδ1 about 2 µg/ml (read from x axis), parent: est. 16

UniProt Q6UXE8, sequence (Q6UXE8 whole entry, looked up, the tested form may be a part): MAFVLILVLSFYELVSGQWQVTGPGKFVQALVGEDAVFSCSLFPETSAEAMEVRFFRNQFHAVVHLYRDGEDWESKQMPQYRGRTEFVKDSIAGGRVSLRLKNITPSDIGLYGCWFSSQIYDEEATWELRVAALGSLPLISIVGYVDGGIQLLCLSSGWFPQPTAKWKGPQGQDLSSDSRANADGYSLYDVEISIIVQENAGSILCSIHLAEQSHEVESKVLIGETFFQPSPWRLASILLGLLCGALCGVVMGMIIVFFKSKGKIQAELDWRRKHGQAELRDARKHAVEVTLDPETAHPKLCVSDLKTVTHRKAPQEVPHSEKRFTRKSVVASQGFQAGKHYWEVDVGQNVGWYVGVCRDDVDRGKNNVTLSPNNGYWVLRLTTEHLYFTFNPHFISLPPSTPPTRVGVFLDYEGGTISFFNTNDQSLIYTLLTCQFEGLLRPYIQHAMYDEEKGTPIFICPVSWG

Molecule: mo5 Vγ7Vδ2-2 TCR with the HV4 loop of human Vγ4, on Jurkat 76 cells
CD69 expression on transduced J76 cells in response to BTNL3.8-expressing target cells, over control (flow cytometry) [1]: > 3 fold

Molecule: LES Vγ4Vδ5 TCR, soluble, wild type γ:…>ATWEG--YKKLF (CDR3, as aligned)
ratio to parent [2]: 0.72

Molecule: BTNL3.8 heterodimer on 293T cells (from UniProt Q6UXE8;Q6UX41) EDWESK>KDQPFM (in BTNL3)
response (gMFI fold relative to ctrl) (soluble Vγ4Vδ1 TCR; [8]): 4.1
response (gMFI fold relative to ctrl) (soluble Vγ4Vδ1 TCR; [9]): 7.7
response (gMFI fold relative to ctrl) (soluble Vγ4Vδ1 TCR; [10]): 5

Molecule: LES Vγ4Vδ5 TCR, soluble, wild type δ:RGYTG>EGSKW (CDR3)
ratio to parent [2]: 0.3

Molecule: LES Vγ4Vδ5 TCR, soluble, wild type δ:NSMF>YRKS (CDR1)
ratio to parent [2]: 0.6
ratio to parent [3]: 0.25

Molecule: LES Vγ4Vδ5 TCR, soluble, wild type γ:EGST>AWRY (CDR1)
ratio to parent [2]: 1.3
ratio to parent [3]: 6.6

Molecule: LES Vγ4Vδ5 TCR, soluble, wild type γ:…>… (HV4; D>Y; G>A)
ratio to parent [3]: 0.53

Molecule: LES Vγ4Vδ5 TCR, soluble, wild type δ:SSIK>RYRE (CDR2)
ratio to parent [2]: 0.88
ratio to parent [3]: 1

Second part, the molecule after the results:

ratio to parent [2]: 0.38
ratio to parent [3]: 1.4
Molecule: LES Vγ4Vδ5 TCR, soluble, wild type γ:…>… (HV4; K>N; M>L)

ratio to parent [2]: 0.066
ratio to parent [3]: 1.8
Molecule: LES Vγ4Vδ5 TCR, soluble, wild type γ:DSYT>KYSR (CDR2)

response (gMFI fold relative to ctrl) (soluble Vγ4Vδ1 TCR; [8]): 1.2
response (gMFI fold relative to ctrl) (soluble Vγ4Vδ1 TCR; [9]): 1.2
response (gMFI fold relative to ctrl) (soluble Vγ4Vδ1 TCR; [10]): 1.4
Molecule: BTNL3.8 heterodimer on 293T cells (from UniProt Q6UXE8;Q6UX41) NQFHA>GQFSS (in BTNL3)

CD69 expression on transduced J76 cells in response to BTNL3.8-expressing target cells, over control (flow cytometry) [1]: > 3 fold
TCR downmodulation on transduced J76 cells after co-culture with 293T.L3L8 cells, against WT Vγ4 TCR transductants (flow cytometry) ([1]; scale: % of the TCR downmodulation of WT Vγ4 TCR transductants): 90
Molecule: mo5 Vγ7Vδ2-2 TCR with the CDR2 and HV4 loops of human Vγ4, on Jurkat 76 cells

Kd [4]: 15 to 25 µM and 20.7 µM
Kd [5]: 22.1 µM and 20.9 µM
Kd [6]: 3.5 µM
dH [6]: -8.1 kcal/mol
percent of LES TCR binding to EPCR left with the competitor [7]: < 40%
B1: BTNL3 IgV domain (wild type) (domain or fragment)
chain: QWQVTGPGKFVQALVGEDAVFSCSLFPETSAEAMEVRFFRNQFHAVVHLYRDGEDWESKQMPQYRGRTEFVKDSIAGGRVSLRLKNITPSDIGLYGCWFSSQIYDEEATWELRV
